{"source": "patent US20240207421A1", "about": "“NERVE TARGETING PEPTIDES AND METHODS OF USE” (ALUME BIOSCIENCES, INC., priority 2020, published 2024)", "data": [{"biological_target": "Human Myelin Basic Protein (Homo sapiens, UniProt P02686)", "sequence (P02686 134-304)": "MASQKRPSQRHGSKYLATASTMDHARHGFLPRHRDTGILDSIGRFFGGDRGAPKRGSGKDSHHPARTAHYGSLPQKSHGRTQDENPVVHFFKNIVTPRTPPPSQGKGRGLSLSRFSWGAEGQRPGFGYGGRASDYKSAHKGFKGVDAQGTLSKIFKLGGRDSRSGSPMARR", "assay": "Phage display library screening (Example 2, Python script analysis), binding to Human Myelin Basic Protein", "design": "Enzo 200-606-M001 from human; purchased Enzo 200-606-M001; host or cells: human brain (tissue-derived)", "settings": "R3 Myelin Basic Protein; combined unique sequence count, Python/R script analysis", "description": "Phage display library screens were used to identify peptides that bind to target proteins (including specific laminin trimers) that are expressed in human nerves, as described in Table 3. These screens were also carried out to identify peptides that could bind selectively to nerves versus muscle. Such peptides could therefore be useful for systemic in-vivo labeling of nerves during fluorescence assisted surgery. Specifically, m 13 phage libraries expressing 7 or 12 random amino acid peptides, or a cyclic peptide CX7C, on the N-terminus of the minor coat protein pIII (New England Biolabs; NEB) were processed through multiple rounds of selection for binding to target proteins expressed in nerves, or to excised human nerves, nerve extracts, or muscle, as described further below.\nFor screening against the specified target proteins in Table 1, including LN211, LN411, LN421, and LN521, the phage library was processed by up to 4 binding and wash cycles. For selection, phage libraries were incubated for up to 24 hours at 4° C. in 96 well plates that had been coated with one of the target proteins. Plates were then washed with PBS and phage were eluted using 0.2M glycine pH 2.0. Phage supernatants where then neutralized with Tris pH 9.0 prior to plating on TGI bacteria and LB agar plates. Colonies were counted to determine titer followed by DNA preparation of pools of phage and NextGen sequencing. After rounds of selection, phage were pooled and amplified for iterative selection. Phage that were bound at each round were sequenced. NextGen sequencing of pools after 2, 3 and 4 rounds of selection was used to isolate candidate sequences that were analyzed further to identify those that specifically bound each unique target protein.\nPython Script Analysis: For all NEB sequence datasets, a python script was used to translate, trim, and filter the peptide sequences. The script translated the nucleotide sequences, translating amber codons as glutamine in peptide sequences, and then trimmed the end sequences that come from the vector. Secondly, the script combined the unique counts of trimmed peptides with identical sequences. […] Another python script was used to group peptides from different assays according to protein target (Myelin Protein Zero, Myelin Proteolipid Protein, Myelin Basic Protein, and Nidogen-2) and also combine the unique sequence counts for each peptide. An R script was written to merge the peptide sequences from different data files and determine peptides specific for each protein target but absent from different protein binding datasets. Peptide sequences were ranked by unique sequence count.", "values": [{"substance": "INFPFAV (R3 Myelin Basic Protein-binding peptide)", "Count": 6}, {"substance": "IPIPYRT (R3 Myelin Basic Protein-binding peptide)", "Count": 6}, {"substance": "IPYSQMP (R3 Myelin Basic Protein-binding peptide)", "Count": 6}, {"substance": "KGQPLFR (R3 Myelin Basic Protein-binding peptide)", "Count": 7}, {"substance": "KIITTKS (R3 Myelin Basic Protein-binding peptide)", "Count": 6}, {"substance": "KMSLAPP (R3 Myelin Basic Protein-binding peptide)", "Count": 6}, {"substance": "KNSIAPR (R3 Myelin Basic Protein-binding peptide)", "Count": 8}, {"substance": "KVHHLAR (R3 Myelin Basic Protein-binding peptide)", "Count": 6}, {"substance": "KYRHGAE (R3 Myelin Basic Protein-binding peptide)", "Count": 7}, {"substance": "LELHQNV (R3 Myelin Basic Protein-binding peptide)", "Count": 6}, {"substance": "LFRRVTE (R3 Myelin Basic Protein-binding peptide)", "Count": 7}, {"substance": "LITHPQL (R3 Myelin Basic Protein-binding peptide)", "Count": 6}, {"substance": "LMLPQLE (R3 Myelin Basic Protein-binding peptide)", "Count": 6}, {"substance": "LPPQISR (R3 Myelin Basic Protein-binding peptide)", "Count": 8}, {"substance": "LTKSLNH (R3 Myelin Basic Protein-binding peptide)", "Count": 7}, {"substance": "LVPPVNH (R3 Myelin Basic Protein-binding peptide)", "Count": 6}, {"substance": "MDLSLKP (R3 Myelin Basic Protein-binding peptide)", "Count": 10}, {"substance": "MNSPLAQ (R3 Myelin Basic Protein-binding peptide)", "Count": 6}, {"substance": "MPLLELP (R3 Myelin Basic Protein-binding peptide)", "Count": 7}, {"substance": "MPSLKHQ (R3 Myelin Basic Protein-binding peptide)", "Count": 8}, {"substance": "MQRLGAD (R3 Myelin Basic Protein-binding peptide)", "Count": 6}, {"substance": "MTNHGNA (R3 Myelin Basic Protein-binding peptide)", "Count": 7}, {"substance": "NFAQHMQ (R3 Myelin Basic Protein-binding peptide)", "Count": 9}, {"substance": "NGPNSLQ (R3 Myelin Basic Protein-binding peptide)", "Count": 6}, {"substance": "NGVSSSL (R3 Myelin Basic Protein-binding peptide)", "Count": 6}, {"substance": "NLKLWTR (R3 Myelin Basic Protein-binding peptide)", "Count": 7}, {"substance": "NLLQGVM (R3 Myelin Basic Protein-binding peptide)", "Count": 7}, {"substance": "NLTYLRF (R3 Myelin Basic Protein-binding peptide)", "Count": 6}, {"substance": "NMYPRVT (R3 Myelin Basic Protein-binding peptide)", "Count": 7}, {"substance": "NPTDTNK (R3 Myelin Basic Protein-binding peptide)", "Count": 8}, {"substance": "NSSPHQI (R3 Myelin Basic Protein-binding peptide)", "Count": 7}, {"substance": "NTPKVLA (R3 Myelin Basic Protein-binding peptide)", "Count": 10}, {"substance": "NTSLSFK (R3 Myelin Basic Protein-binding peptide)", "Count": 8}, {"substance": "QGAYVRP (R3 Myelin Basic Protein-binding peptide)", "Count": 6}, {"substance": "QGTLFDT (R3 Myelin Basic Protein-binding peptide)", "Count": 7}, {"substance": "QKALPQT (R3 Myelin Basic Protein-binding peptide)", "Count": 6}, {"substance": "QNSYLSN (R3 Myelin Basic Protein-binding peptide)", "Count": 8}, {"substance": "QPIDSTS (R3 Myelin Basic Protein-binding peptide)", "Count": 7}, {"substance": "QQAHLQS (R3 Myelin Basic Protein-binding peptide)", "Count": 8}, {"substance": "QTSIMSG (R3 Myelin Basic Protein-binding peptide)", "Count": 6}, {"substance": "QYWDILG (R3 Myelin Basic Protein-binding peptide)", "Count": 6}, {"substance": "RGHPSQL (R3 Myelin Basic Protein-binding peptide)", "Count": 6}, {"substance": "RSRKHRP (R3 Myelin Basic Protein-binding peptide)", "Count": 6}, {"substance": "RTTDWWT (R3 Myelin Basic Protein-binding peptide)", "Count": 6}, {"substance": "RVIPSTT (R3 Myelin Basic Protein-binding peptide)", "Count": 6}, {"substance": "SAVLMPP (R3 Myelin Basic Protein-binding peptide)", "Count": 6}, {"substance": "SEGLTLL (R3 Myelin Basic Protein-binding peptide)", "Count": 6}, {"substance": "SEPGTVR (R3 Myelin Basic Protein-binding peptide)", "Count": 7}, {"substance": "SGNLKKA (R3 Myelin Basic Protein-binding peptide)", "Count": 7}, {"substance": "SGPFPLV (R3 Myelin Basic Protein-binding peptide)", "Count": 6}, {"substance": "SIAEVLGLWRNV (R3 Myelin Basic Protein-binding peptide)", "Count": 7}, {"substance": "SIQTSAM (R3 Myelin Basic Protein-binding peptide)", "Count": 6}, {"substance": "SIRMTEI (R3 Myelin Basic Protein-binding peptide)", "Count": 7}, {"substance": "SISKIRT (R3 Myelin Basic Protein-binding peptide)", "Count": 7}, {"substance": "SKLAGFP (R3 Myelin Basic Protein-binding peptide)", "Count": 6}, {"substance": "SKPHASH (R3 Myelin Basic Protein-binding peptide)", "Count": 6}, {"substance": "SLDHLRL (R3 Myelin Basic Protein-binding peptide)", "Count": 6}, {"substance": "SLKTTNP (R3 Myelin Basic Protein-binding peptide)", "Count": 6}, {"substance": "SLRSVGA (R3 Myelin Basic Protein-binding peptide)", "Count": 7}, {"substance": "SLWQTLR (R3 Myelin Basic Protein-binding peptide)", "Count": 6}, {"substance": "SLWTHRT (R3 Myelin Basic Protein-binding peptide)", "Count": 6}, {"substance": "SNAERWR (R3 Myelin Basic Protein-binding peptide)", "Count": 9}, {"substance": "SNAHTLP (R3 Myelin Basic Protein-binding peptide)", "Count": 6}, {"substance": "SPKPDIP (R3 Myelin Basic Protein-binding peptide)", "Count": 6}, {"substance": "SPPRFIP (R3 Myelin Basic Protein-binding peptide)", "Count": 8}, {"substance": "SRHLPPL (R3 Myelin Basic Protein-binding peptide)", "Count": 6}, {"substance": "SRPTRVP (R3 Myelin Basic Protein-binding peptide)", "Count": 9}, {"substance": "SSFYVAY (R3 Myelin Basic Protein-binding peptide)", "Count": 6}, {"substance": "SSGMLSK (R3 Myelin Basic Protein-binding peptide)", "Count": 7}, {"substance": "SSMRYNS (R3 Myelin Basic Protein-binding peptide)", "Count": 6}, {"substance": "SVEYGQL (R3 Myelin Basic Protein-binding peptide)", "Count": 9}, {"substance": "SVGLPTK (R3 Myelin Basic Protein-binding peptide)", "Count": 6}, {"substance": "SWFESHN (R3 Myelin Basic Protein-binding peptide)", "Count": 8}, {"substance": "SYRSMAP (R3 Myelin Basic Protein-binding peptide)", "Count": 6}, {"substance": "SYTLSRS (R3 Myelin Basic Protein-binding peptide)", "Count": 7}, {"substance": "SYVTVFR (R3 Myelin Basic Protein-binding peptide)", "Count": 6}, {"substance": "TGNLRLY (R3 Myelin Basic Protein-binding peptide)", "Count": 9}, {"substance": "TGPSSAV (R3 Myelin Basic Protein-binding peptide)", "Count": 6}, {"substance": "TGSVSKQ (R3 Myelin Basic Protein-binding peptide)", "Count": 6}, {"substance": "THKHMMT (R3 Myelin Basic Protein-binding peptide)", "Count": 6}, {"substance": "TIRVAHT (R3 Myelin Basic Protein-binding peptide)", "Count": 6}, {"substance": "TLLTALT (R3 Myelin Basic Protein-binding peptide)", "Count": 7}, {"substance": "TPGRATL (R3 Myelin Basic Protein-binding peptide)", "Count": 6}, {"substance": "TPLYLSS (R3 Myelin Basic Protein-binding peptide)", "Count": 7}, {"substance": "TPQVMLK (R3 Myelin Basic Protein-binding peptide)", "Count": 8}, {"substance": "TPVLWLP (R3 Myelin Basic Protein-binding peptide)", "Count": 6}]}]}
